Values joined by “and” are separate entries in the source; they are usually repeats but may differ in a detail not shown here. Equal entries are not always repeated. Where two headings read alike, the source gives them in different places.
What was measured:
in vitro = conditions: human
Description: (§1) The cultures were incubated for 7 days at 37° C./5% CO2. Efficacy of the compounds was evaluated by measuring the amount of reverse transcriptase in the culture supernatant and toxicity was evaluated using XTT to measure cell viability. AZT was evaluated in parallel as an assay control.

HIV-1US/92/727 = assay: Anti-HIV evaluation in PHA-stimulated human PBMCs, reverse transcriptase in supernatant; format: cell-based; conditions: HIV-1US/92/727, human PBMCs, 7 days
Description: as §1

HIV-1IIIB gp120 [1] = target: T1, HIV-1IIIB gp120 (Human immunodeficiency virus type 1 group M subtype B, UniProt P04578); conditions: ELISA, 100 ng/well gp120
Description: High protein binding Greiner 96-well plates (VWR, Bridgeport, N.J.) were coated with 1 pmol/well of recombinant HIV-1IIIIB gp120 (Immuno Diagnostics, Woburn, Mass.) or recombinant HIV-1HXB2 gp41 (Vybion Inc., Ithaca, N.Y.) at 4° C. overnight. The wells were emptied and then blocked with 200 μl/well of 3% non-fat dry milk (Bio-Rad, Hercules, Calif.) blocking solution for 2 hrs. A control plate was incubated with blocking solution only. After washing three times with PBST, 0.5-log10 serial dilutions of rCNID-1-Trx were added to triplicate wells of gp120−, gp41− and the blocking solution control plate, and the plates were incubated for 2 hrs. The plates were washed with PBST and 100 W/well of a 1:250 dilution of polyclonal rabbit anti-CNID-1 antibody was added and allowed to incubate for 1 hr, followed by three washes with PBST. Goat anti-rabbit (H+L), peroxidase conjugated secondary antibody (Thermo Fisher Scientific Inc., Rockford, Ill.) was added to each well (100 μl/well of a 1:1000 dilution) and further incubated for 1 hr, followed by three washes with PBST. The TMB 2-component Microwell peroxidase substrate kit (KPL Inc., Gaithersburg, Md.) was used for peroxidase detection: 100 W/well, incubation for 5-10 min and the reaction was stopped by addition of 0.5M HCl (100 W/well) before reading the absorbance at 450 nm.
Briefly, 100 ng/wells of glycosylated recombinant HIV-1IIIB gp120 (Immuno Diagnostics, Woburn, Mass.) or nonglycosylated HIV-1 gp120 (MyBioSource LLC, San Diego, Calif.) was added to the wells of two 96-well plates, and incubated overnight at 4° C. The plates were washed and blocked as previously described. Serial dilutions of rCNID-1-Trx were added (100 W/well); incubation done for 2 hrs. The plates were then washed and visualized using anti-CNID-1 polyclonal antibodies as above.

HIV-1RF = assay: XTT-tetrazolium anti-HIV assay, HIV-1RF in CEM-SS cells; format: cell-based; conditions: for EC50: HIV-1RF, T-tropic laboratory strain, CEM-SS cells, XTT, 6 days
Description: (§2) A 2,3-bis-[2-methoxy-4-nitro-5-sulfophenyl]-2H-tetrazolium-5-carboxanilide inner salt (XTT)-tetrazolium-based assay was used to determine the anti-HIV activity of CNID-1, -2 and -3 against a T-tropic laboratory strain (HIV-1RF) in T-lymphoblastic CEM-SS cells as described previously (Gulakowski et al., J. Virol. Methods, 33: 87-100 (1991)). CEM-SS cells were maintained in RPMI 1640 media without phenol red and supplemented with 10% fetal bovine serum (BioWhittaker), 2 mM L-glutamine (BioWhittaker), and 50 μg/ml gentamicin (BioWhittaker) (complete medium). Exponentially growing cells were washed and resuspended in complete medium, and a 50 μl aliquot containing 5×10^3 cells was added to individual wells of a 96-well round-bottom microtiter plate containing serial dilutions of the respective cnidarin protein in a volume of 100 μl of medium. Stock supernatants of HIV-1RF were diluted in complete medium to yield sufficient cytopathicity (80-90% cell kill in 6 days), and a 50 μl aliquot was added to appropriate wells. Plates were incubated for 6 days at 37° C. and then stained for cellular viability using XTT.
(§3) The HIV reverse transcriptase inhibitor 3′-Azido-3′-deoxythymidine (AZT) was used as a positive control. All assays were carried out in triplicate for all viruses and cells.

HIV-1IIIB gp120 [2] = target: T1, HIV-1IIIB gp120
Description: Recombinant CNID-1 (in fusion with Trx and rEK cleaved forms of rCNID-1) and recombinant HIV-1IIIIB gp120 (Immuno Diagnostics, Woburn, Mass.) controls were resolved on 4-12% Bis-Tris pre-cast SDS-PAGE gels (Life Technologies, Grand Island, N.Y.) and blotted onto polyvinylidine difluoride membranes. Membranes were blocked with 3% BSA for 2 hours. For CNID-1 detection, the membrane was incubated overnight with rabbit anti-CNID-1 (1:2000 dilution). For detection of rCNID-1 binding to gp120, membranes were incubated overnight with 1 μg/ml rgp120, then washed thrice with PBST before being incubated with polyclonal rabbit anti-gp120 (1:1000 dilution) overnight. Membranes were washed three times with PBST and further incubated with goat anti-rabbit (H+L), peroxidase conjugated secondary antibody (Thermo Fisher Scientific Inc., Rockford, Ill.) at a 1:1000 dilution for 1 hr. After washing with PBST, signals were detected on Hyblot CL autoradiography film (Denville Scientific, Metuchen, N.J.) using the SignalFire ECL reagent system (Cell Signaling Technology Inc., Danvers, Mass.) according to the manufacturer's protocol.

human PBMCs = assay: Toxicity in PHA-stimulated human PBMCs, XTT cell viability; conditions: human PBMCs, XTT, 7 days
Description: as §1

[3] = system: HeLa CD4 LTR β-galactosidase cells; assay: Cytotoxicity in the attachment and fusion assays; format: cell-based
Description: as §3
(§4) Attachment and fusion assays were performed in HeLa-CD4-LTR-β-galactosidase cell lines as described previously (Gartner & Popovic, (1990), supra) with the following modifications. Following the interaction of HIV-1IIIIIB with HeLa CD4 LTR β-gal cells, viral attachment to HeLa CD4 LTR β-gal cells was detected as cell-associated p24 antigen following a 1 hour adsorption of virus and vigorous washing for removal of unbound virus. Fusion of HIV-1IIIIB with HeLa CD4 LTR β-gal cells was detected by chemiluminescence using a single-step lysis and detection method (Tropix Gal-screen, Bedford, Mass.) and results reported as EC50 values. Chicago Sky Blue, a polysulfonic acid dye inhibitor of HIV attachment and fusion, was used as a positive control for all assays (Clanton et al., J. Acquired Immune Defic. Syndr., 5: 771-781 (1992)).

Macrophage = assay: Cell viability of monocyte/macrophage cultures (CellTiter formazan dye reduction); format: cell-based, human; conditions: macrophages
Source text: (§5) To test the anti-HIV activity of CNID1 against HIV primary isolates in fresh human cells, monocyte-tropic HIV-1 strain Ba-L was obtained from the NIAID AIDS Research and Reference Reagent Program (National Institutes of Health, Bethesda, Md.). The low passage HIV-1 pediatric isolate ROJO was derived as described previously (Buckheit et al., AIDS Res. Hum. Retroviruses, 10: 1497-1506 (1994)). Human peripheral blood mononuclear cells (PBMCs) and macrophages were isolated from hepatitis and HIV seronegative donors following Ficoll-Paque centrifugation as described elsewhere (Gartner & Popovic, Techniques in HIV Research, Aldovini, A. and Walker B., eds., pp. 59-63, Stockton Press, New York, 1990). Antiviral assays were carried out with 3-day-old phytohaemagglutinin/interleukin-2 stimulated PBMCs or 6-day-cultured monocyte/macrophages. […] HIV-1 replication in PBMC (ROJO) or monocyte macrophage (Ba-L) cultures were determined by measurement of reverse transcriptase activity (Buckheit et al., Antiviral Res., 21: 247-265 (1993)) in the supernatants or p24 antigen expression by ELISA (Coulter, Hialeah, Fla.), respectively. Cell viability by formazan dye reduction was determined in replicated cultures using the CellTiter reagent (Promega, Madison, Wis.). […]

HIV-1ROJO = assay: HIV-1 ROJO replication in human PBMC cultures, supernatant reverse transcriptase activity; format: cell-based; conditions: T-tropic primary isolate
Source text: as §5

PBMC = assay: Cell viability of PBMC cultures (CellTiter formazan dye reduction); format: cell-based, human
Source text: as §5

HIV-1IIIB [4] = assay: Viral fusion assay, chemiluminescence in HeLa CD4 LTR β-gal cells; format: cell-based
Description: as §4

HIV-1IIIB [5] = assay: Viral attachment assay, cell-associated p24 antigen in HeLa CD4 LTR β-gal cells; format: cell-based
Description: as §4

CEM-SS cells = assay: Direct toxicity to uninfected CEM-SS control cells (XTT); format: cell-based, human
Description: as §2, §3

**Q.** For `Cc1cn([C@H]2C[C@H](N=[N+]=[N-])[C@@H](CO)O2)c(=O)[nH]c1=O` [AZT, 3′-Azido-3′-deoxythymidine, reference compound], which CC50 at 7 days (in vitro) is on record?
**A.** > 1000 nM

**Q.** What about the EC50 (HIV-1US/92/727; Human immunodeficiency virus 1, PBMC, 168 h, read-out: EC50) of the same molecule?
**A.** 1.88 nM

B1: rCNID-1-Trx: thioredoxin-hexahistidine-CNID-1 fusion protein expressed in E. coli (protein)
chain: GRATLGQLKTSTIPPVTFDVPFDGANIPQDVRFTIATVNGGKGALYNAELGESAGHTIVLESDGDHPIPGTFDPKSGRGLDYLPRGLVLFSSHNYVGNMKMYTEPDSDITADFPPGTPFGVSSAITGEGSAFQLNTGIDHTGEFEIIPPNTKRNLAGVFDNEIRSVSPTGGK
modifications: left off: large carriers; small tags and cut ends
notes: thioredoxin-hexahistidine-CNID-1 fusion protein expressed in E. coli
**Q.** What does the source list for B1?
**A.** Binding to gp120 (HIV-1IIIB gp120 [1]): binds to HIV-1 glycoproteins, gp120; Activity after extraction and refolding from inclusion bodies (HIV-1RF; CaCl2 presence): low-to-partially active; Activity after extraction and refolding from inclusion bodies (HIV-1RF; absence of CaCl2): inactive; Binding to gp120 by immunoblot (HIV-1IIIB gp120 [2]): specific binding

B2: rCNID-1 truncated forms: truncated forms of rCNID-1 (~14-16 kDa) from enterokinase digestion of rCNID-1-Trx (protein)
chain: B1 chain
**Q.** For B2, which EC50 (HIV-1RF) is on record?
**A.** 45 to 150 nM

**Q.** And the “Binding to gp120 by immunoblot” value (HIV-1IIIB gp120 [2])?
**A.** specific binding

B3: CNID-3: HIV-inhibitory protein from soft coral Synthecium sp.; 170 amino acids, 17,963 Da, SEQ ID NO: 3 (protein)
chain: GKSAYPGQITSDVPFVTFDVPFDGVNIPQDVRFTIATVNGGKLALYNAKLGDPANNTIVLESDGDHPIPGTFDDPKGRGLDYAFGGLLLFSFHNFVGHKKLYREPDSDITADFPPGLGGSSAITGEGSTVQLYTGIDFTGISEIMPVNTKRNFVVAFGNEFKSVSPTGGG
**Q.** With B3 as the molecule, how does the TC50 (human PBMCs) read?
**A.** >0.5 µg/mL

**Q.** And the CC50 ([3]; attachment assay, read-out: Inhibition of Attachment CC50)?
**A.** > 55.7 nM

**Q.** What about the CC50 ([3]; fusion assay, read-out: Inhibition of Fusion CC50) of the same molecule?
**A.** > 55.7 nM

**Q.** What about the CC50 (Macrophage) of the same molecule?
**A.** 4.62 nM

**Q.** What about the EC50 (HIV-1ROJO) of the same molecule?
**A.** 1.55 nM and 1.5 nM

**Q.** What about the CC50 (PBMC) of the same molecule?
**A.** 155 nM

**Q.** And the EC50 (HIV-1US/92/727)?
**A.** 0.0160 µg/mL

**Q.** And the “Inhibition of viral fusion” value (HIV-1IIIB [4])?
**A.** inhibit HIV viral fusion

**Q.** And the EC50 (HIV-1IIIB [4]; read-out: Inhibition of Fusion EC50)?
**A.** 2.06 nM

**Q.** What about the EC50 (HIV-1RF) of the same molecule?
**A.** 0.114 nM

**Q.** And the “Inhibition of viral attachment to the cell” value (HIV-1IIIB [5])?
**A.** not attachment

**Q.** What about the EC50 (HIV-1IIIB [5]; read-out: Inhibition of Attachment EC50) of the same molecule?
**A.** > 55.7 nM

**Q.** What about the CC50 (CEM-SS cells) of the same molecule?
**A.** > 199 nM

From patent US11034736B2, “Anti-viral cnidarins” (priority 2014, dated 2021)
